Biological target: ETV5 DNA-binding domain (pET-41a) (UniProt Q9CXC9 368-448)
Test: EMSA

Chain of ETV5 DNA-binding domain (pET-41a) (Q9CXC9 368-448): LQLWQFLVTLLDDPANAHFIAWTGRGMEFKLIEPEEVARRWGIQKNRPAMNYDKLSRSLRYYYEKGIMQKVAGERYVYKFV

B1: EBS3 probe (Ccl9) (dsDNA)
DNA 1: CTCTAGTACCAGGGAATTTAACACCCTCTTC
DNA 2: GAAGAGGGTGTTAAATTCCCTGGTACTAGAG
  binding result: binds

From PMC3109872
